# What was measured:
# [1] = target: T1, SpA on S. aureus Newman strain cells (Staphylococcus aureus (Newman strain), UniProt A0A0H3K686 37-477); experiment: whole cell ELISA
# T1 construct: also called wild type S. aureus Newman
# [2] = target: T2, rProtein A (HiTrap rProtein A FF column) (Staphylococcus aureus, UniProt P38507 37-327); experiment: affinity chromatography
# T2 construct: also called SpA
# [3] = target: T3, Sbi-E (amino acids 28-266) (Staphylococcus aureus, UniProt Q2FVK5 28-266); experiment: double immunodiffusion in agarose gel
# T3 construct: range 28-266
# [4] = target: T4, Recombinant SpA (Biovision), recombinant 4-domain SpA (Staphylococcus aureus, UniProt P38507 37-269); experiment: double immunodiffusion in agarose gel
# T4 construct: domain: SpA IgBP domains 1-4; also called SpA 1-4; SpA1-4
binder,measurement,setting,value
"Anti-RSV variant antibody MAB5 (antibody, human IgG1, kappa, V domains shown, also called anti-RSV heavy chain constant region variant; control anti-RSV variant antibody) VH: QVTLRESGPALVKPTQTLTLTCTFSGFSLSTAGMSVGWIRQPPGKALEWLADIWWDDKKHYNPSLKDRLTISKDTSKNQVVLKVTNMDPADTATYYCARDMIFNFYFDVWGQGTTVTVSS VL: DIQMTQSPSTLSASVGDRVTITCSASSRVGYMHWYQQKPGKAPKLLIYDTSKLASGVPSRFSGSGSGTEFTLTISSLQPDDFATYYCFQGSGYPFTFGGGTKLEIKR",binding result,[1],no binding
same,binding result,[2],no binding
same,binding result,[3],"no binding (tested: 1 mg/ml (from paragraph 493, not on the sheet))"
same,binding result,[4],"no binding (tested: 1 mg/ml (from paragraph 493, not on the sheet))"

# Reference: patent publication US20160115222A1 (published 2016)
